Five molecules from patent publication US20260209332A1 (SORRISO PHARMACEUTICALS, published 2026) can be followed below.

For experiment [1], the target named is T1, tumor necrosis factor alpha (TNF-alpha) (UniProt P01375 77-233).
T1 construct: Called a homo-trimeric protein in the general description
Kind of experiment: competition ELISA on TNF-alpha; competitor: biotinylated adalimumab.

The target in experiment [2] is T2, interleukin-23 (IL-23) (UniProt Q9NPF7 20-189; P29460 23-328).
T2 sequence (looked up) 1: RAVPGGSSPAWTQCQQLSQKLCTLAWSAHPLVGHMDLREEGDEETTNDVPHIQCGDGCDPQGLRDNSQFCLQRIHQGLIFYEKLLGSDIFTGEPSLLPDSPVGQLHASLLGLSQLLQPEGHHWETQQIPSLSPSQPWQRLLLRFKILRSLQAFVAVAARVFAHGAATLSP
T2 sequence (looked up) 2: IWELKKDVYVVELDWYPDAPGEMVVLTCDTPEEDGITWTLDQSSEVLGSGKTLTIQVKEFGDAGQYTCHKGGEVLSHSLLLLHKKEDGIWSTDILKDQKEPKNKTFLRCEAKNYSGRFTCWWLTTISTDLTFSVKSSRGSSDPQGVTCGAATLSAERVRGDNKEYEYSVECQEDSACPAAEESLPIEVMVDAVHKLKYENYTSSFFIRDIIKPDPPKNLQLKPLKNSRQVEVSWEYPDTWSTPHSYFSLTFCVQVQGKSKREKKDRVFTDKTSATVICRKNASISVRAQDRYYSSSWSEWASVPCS
Kind of experiment: IL-23/IL-23R interference ELISA; blocked interaction: IL-23 with IL-23 receptor.

The target of experiment [3] is T1, tumor necrosis factor alpha (TNF-alpha). Kind of experiment: competition ELISA on TNF-alpha; competitor: biotinylated adalimumab; arm liberated by trypsin.
The target of experiment [4] is T2, interleukin-23 (IL-23). Kind of experiment: IL-23/IL-23R interference ELISA; blocked interaction: IL-23 with IL-23 receptor; arm liberated by trypsin.

T1 sequence (P01375 77-233 limits assumed): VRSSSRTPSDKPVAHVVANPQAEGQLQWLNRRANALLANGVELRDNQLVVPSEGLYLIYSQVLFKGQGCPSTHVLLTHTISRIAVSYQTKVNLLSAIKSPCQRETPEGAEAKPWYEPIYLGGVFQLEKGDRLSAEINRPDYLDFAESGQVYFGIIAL

B1: TNF-alpha/IL-23 dual inhibitor (bispecific anti-TNF-alpha/anti-IL-23 domain antibody) (bispecific antibody)
chain: DVQLVESGGGLVQPGGSLKLSCAASGFDFSSHWMYWVRQAPGKELEWLSEINTNGLITHYGDSVKGRFTVSRNNAANKMYLELTRLEPEDTALYYCARNQHGLNKGQGTQVTVSSGGGGSGGGGSKGGGGSGGGGSEVQLVESGGGQVQPGGSLSLSCESSVSIWSFKVMGWFRQVPGKQRELVATITTGGSPDYSDSVKGRFTISRDYDKRTLYLQMNSLKPEDTAVYYCAGRLWAHITSSGHDVWGQGTQVTVSS
notes: Produced and purified from yeast; also called FA1K
As to B1, the “IC50 (read off the curve)” value in experiment [1] and in experiment [2] was roughly 0.2 nM throughout.

B2: TNF-alpha inhibitor (anti-TNF-alpha single domain antibody, parent monomer) (VHH)
VHH: DVQLVESGGGLVQPGGSLKLSCAASGFDFSSHWMYWVRQAPGKELEWLSEINTNGLITHYGDSVKGRFTVSRNNAANKMYLELTRLEPEDTALYYCARNQHGLNKGQGTQVTVSS
notes: Produced and purified from yeast; also called ID-38F
Regarding B2, in experiment [1], the “IC50 (read off the curve)” value is roughly 0.3 nM.

B3: liberated anti-TNF-alpha monomer arm of TNF-alpha/IL-23 dual inhibitor (VHH)
VHH: DVQLVESGGGLVQPGGSLKLSCAASGFDFSSHWMYWVRQAPGKELEWLSEINTNGLITHYGDSVKGRFTVSRNNAANKMYLELTRLEPEDTALYYCARNQHGLNKGQGTQVTVSS
notes: Cleavage product; carries the remnant of the linker at its C-terminus; also called liberated-TNF
Take B3: the “IC50 (read off the curve)” value in experiment [3] was roughly 0.2 nM.

B4: liberated anti-IL-23 monomer arm of TNF-alpha/IL-23 dual inhibitor (VHH)
VHH: EVQLVESGGGQVQPGGSLSLSCESSVSIWSFKVMGWFRQVPGKQRELVATITTGGSPDYSDSVKGRFTISRDYDKRTLYLQMNSLKPEDTAVYYCAGRLWAHITSSGHDVWGQGTQVTVSS
notes: Cleavage product; carries the remnant of the linker at its N-terminus; also called liberated-IL-23
In the case of B4, the “IC50 (read off the curve)” value in experiment [4] was roughly 0.1 nM.

B5: IL-23 inhibitor (anti-IL-23 single domain antibody, parent monomer) (VHH)
VHH: EVQLVESGGGQVQPGGSLSLSCESSVSIWSFKVMGWFRQVPGKQRELVATITTGGSPDYSDSVKGRFTISRDYDKRTLYLQMNSLKPEDTAVYYCAGRLWAHITSSGHDVWGQGTQVTVSS
notes: Produced in yeast; also called IL-23: D1E ID-L253T
As to B5, in experiment [2], the “IC50 (read off the curve)” value was roughly 0.2 nM.
